The record followed here is US20190309074A1, “DEGLYCOSYLATED ANTIBODY SPECIFICALLY BINDING TO CLEC14A AND USES THEREOF” (WOORI TECHNOLOGIES CORPORATION, priority 2016, published 2019).

The target in one data set is T1, mclec14a-CTLD-Fc (Mus musculus, UniProt Q8VCP9).
T1 construct: both human and mouse clec14a-CTLDs (hclec14a-CTLD and mclec14a-CTLD)
T1 sequence (Q8VCP9 33-173 limits assumed): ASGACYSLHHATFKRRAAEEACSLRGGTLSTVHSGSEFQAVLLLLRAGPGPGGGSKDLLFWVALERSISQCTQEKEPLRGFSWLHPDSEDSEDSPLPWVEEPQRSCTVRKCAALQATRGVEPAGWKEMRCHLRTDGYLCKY
The data set can be described thus: ELISA binding specificity. The text has this:
(§1) Then, the scFv clones were converted into IgG, expressed in human embryonic kidney (HEK) 293 cells and then purified.

Another data set concerns the target T2, hclec14a-CTLD-Fc (Homo sapiens, UniProt Q86T13).
T2 sequence (Q86T13 33-173 limits assumed): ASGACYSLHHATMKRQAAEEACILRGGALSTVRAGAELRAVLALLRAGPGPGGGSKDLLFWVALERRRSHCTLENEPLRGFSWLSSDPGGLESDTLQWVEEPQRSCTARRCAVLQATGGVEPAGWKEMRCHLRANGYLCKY
The data set can be described thus: ELISA binding specificity.
From the text: as §1

The subject of a further data set is HUVEC tube formation. Briefly: HUVEC tube formation assay. Type of data set: cell-based, human. The settings on record: branches as % of MOCK. The protocol: Genetic mutation introduced during antibody engineering induces unpredicted defects, resulting in deterioration in antibody functions. In order to isolate antibodies for suppressing clec14a-mediated angiogenesis, tube formation and endothelial cell migration assay using human umbilical vein endothelial cells (HUVECs) were conducted in the presence or absence of clone 1 IgG and deglyco C1-C4 IgGs. Among the four types of deglyco IgGs, deglyco C1 IgG was selected as a candidate antibody. […] In addition, it can be seen that deglyco C1 IgG includes desired alterations (N32R/N33C/S34G) in the amino acid sequence in light chain CDR1.
In order to compare in vitro angiogenesis suppression effect between deglyco C1 IgG and bevacizumab, tube formation and migration assay were conducted in the presence or absence of parent antibody IgG, deglyco C1 IgG or bevacizumab as a positive control group.
In order to investigate in vitro effects of deglyco C1 IgG on VEGF-dependent angiogenesis, HUVECs were treated with VEGF in the presence or absence of deglyco C1 IgG, and then HUVEC tube formation assay was conducted. 150 μl of Matrigel was added to a 48-well plate and incubated at 37° C. for 30 minutes. HUVEC (10^5) cultured in EGM-2 were collected, seeded on the Matrigel-coated plate and incubated at 37° C. for 18 hours in the presence or absence of clone 1 IgG, parent antibody IgG, deglycosylated clec14a-CTLD IgG or bevacizumab. HUVECs cultured in VEGF-containing EBM (endothelial cell basal medium) were seeded to the Matrigel-coated plate and incubated at 37° C. for 18 hours in the presence or absence of deglyco C1 IgG (20 μg ml^−1).

The nature of data set [1]: aggregation of purified antibody by visual observation and spectrophotometry. Format: physicochemical. As to conditions: for aggregation by visual observation: purified antibody preparation. The text has this: In order to identify improved aggregation degree of clone 1 IgG, aggregation of purified parent antibody IgG and clone 1 IgG was compared by visual observation and then was confirmed by spectrophotometry.

A short description of data set [2]: water-soluble antibody weighed after aggregates precipitated and removed by centrifugation. Format: physicochemical. The text has this:
For further comparison in stability between parent antibody IgG and clone 1 IgG, a water-soluble antibody was weighed after aggregates were precipitated and removed by centrifugation.

B1: Clone 1 IgG: parent antibody CDRs grafted to the framework region of omalizumab (Xolair®) (antibody, V domains shown)
VH: EVQLVESGGGLVQPGGSLRLSCAVSGFTFSGYDMSWIRQAPGKGLEWVAGIYPDGGNTYYADSVKGRFTISRDDSKNTFYLQMNSLRAEDTAVYYCARGATWWVLGPFDYWGQGTLVTVSS
VL: DIQLTQSPSSLSASVGDRVTITCTGSSSNIGNNSVTWYQQKPGKAPKLLIYADSHRPSGVPSRFSGSGSGTDFTLTISSLQPEDFATYYCGAWDDSLSGYVFGQGTKVEIKR
On to B1, for which the “binding to mclec14a-CTLD-Fc” value in the data set with mclec14a-CTLD-Fc is “cross-reactivity to human and mouse CTLDs”. The “binding to hclec14a-CTLD-Fc” value with hclec14a-CTLD-Fc was “cross-reactivity to human and mouse CTLDs”. For the same molecule, the “inhibitory activity against HUVEC tube formation” value with HUVEC tube formation is “inhibitory activity against tube formation, comparable to the parent antibody”. In addition, the results for the “aggregation by visual observation” value in data set [1] and in data set [1] (listed as the antibody substituted with the framework of omalizumab (Xolair®)) were “not visually observed” and “no aggregation”, respectively. Besides, in data set [1] (spectrophotometry, 100×[Abs340/(Abs280−Abs340)]), the Aggregation index is around 1.5. Further, the “antibody of the preparation aggregated” value in data set [2] was “no antibody aggregation was observed”.
